From patent US20080175829A1, “METHOD FOR INDUCING NEURAL DIFFERENTIATION” (priority 2004, published 2008)

Legend:
[1] = test system: size-sieved stem cells (SSCs) derived from human bone marrow; experiment: Morphology of SSCs (phase contrast), neuronal-like transformation; assay type: cell-based; conditions: for morphology of neurites/processes of SSCs: ITS medium, 7 days, GDNF 50 ng/ml, PACAP 20 ng/ml, dbcAMP 0.1 mM, compared to ITS medium alone
Method: SSCs were isolated from human bone marrow as described previously (Hung et al. (2002)). In brief, human bone marrow was aspirated from the iliac crest of normal donors, and then washed twice with phosphate-buffered saline (PBS). The cells were loaded into 1.073 g/ml Percoll solution (Sigma®), and then centrifuged at 900 g for 30 min. The mononuclear cells (MNCs) were collected from the interface, and plated at the density of 1×10^6 MNCs/cm^2 onto a 10-cm plastic culture dish comprised of an inserted sieve with 3-μm pores (Transwell System, Corning®). The cells were cultured in Dulbecco's modified Eagle's medium-low glucose (DMFM-LG) containing 10% fetal bovine serum (FBS), 100 U/ml penicillin, […] streptomycin, and 0.25 μg/ml amphotericin B (serum-containing medium). […] However, the cells that passed through the sieve were small, polygonal and had less renewal. SSCs were then harvested with 0.25% trypsin and 1 mM EDTA, and replated on 10-cm culture petri dishes. When SSCs were grown in serum containing medium to 80% confluence, the cells were replated onto 35-mm culture petri dishes at the density of 1×10^5 cells/dish for Western Blotting, or onto 8-well chambers at the density of 1×10^4 cells/well for immunofluorescence.
[…] ITS medium consisted of 56% DMEM-LG (Life Biotech®), 40% MCDB-201 medium (Sigma®), and 1×ITS medium supplement (Sigma®) contained 1 mg/ml insulin, 0.55 mg/ml human transferrin, 0.5 μg/ml sodium selenite, 10 nM dexamethasone (Sigma®), and 10 μM ascorbic acid (Sigma®)). […] However, when SSCs were cultured in serum free medium with ITS supplement, these cells adhered well onto cultured plates and extended their processes. Therefore, treatments were performed in ITS medium.

[2] = test system: size-sieved stem cells (SSCs) derived from human bone marrow; experiment: Western Blotting of neuron-specific markers (NF-L, NF-H) and α-tubulin in SSCs; assay type: cell-based; conditions: 7 days in ITS medium; for expression of NF-L protein in SSCs: compared to ITS medium alone
Method: This is to study the effects of GDNF, PACAP and dbcAMP on neuronal differentiation of SSC in ITS medium. The levels of neuron-specific markers (NF-L and NF-H) in the SSCs were examined by Western Blotting. The cells were replated at the density of 1×10^5 cells per 35 mm petri dish and cultured for 7 days in ITS medium with GDNF, PACAP or dbcAMP at the distinct concentrations. Cells were harvested and gently homogenized on ice using PBS containing 1% SDS, 1 mM phenylmethyl-sulfonylfluoride (PMSF), 1 mM EDTA, […], […], and […]. Protein concentrations were determined using a Bio-Rad® DC kit. Ten μg of total protein was loaded onto 7.5% SDS-PAGE, and transferred to a nitrocellulous membrane. NF-L (70 kDa) and NF-H (200 kDa) were identified by incubating the membrane with anti-NF antibodies (Chemicon®) overnight at 4° C., followed by horseradish peroxidase-conjugated secondary antibodies and enhanced chemiluminescence solution (NEN LifeScience®).

[3] = test system: size-sieved stem cells (SSCs) derived from human bone marrow; experiment: Immunofluorescence staining for α-internexin in SSCs; assay type: cell-based; conditions: 7 days in ITS medium; GDNF 50 ng/ml, PACAP 20 ng/ml, dbcAMP 0.1 mM
Method: Immunofluorescence staining for another neuronal intermediate filament protein, α-internexin (FIG. 5), was performed using antibodies against α-internexin (1:200; Chemicon®).

[4] = test system: size-sieved stem cells (SSCs) derived from human bone marrow; experiment: Immunofluorescence for synapsin-1 in SSCs; assay type: cell-based; conditions: 7 days in ITS medium; 50 ng/ml GDNF or 20 nM PACAP
Method: To detect the morphological change of the SSCs that had been treated with 50 ng/ml GDNF or 20 nM PACAP in ITS medium for 7 days, the SSCs were fixed in PBS-containing 4% paraformaldehyde for 10 minutes. Examination of immunofluorescence for synapsin-1, a synapse vesicle protein, was performed by incubating SSCs with anti-synapsin-1 antibodies (1:200; BD Biosciences®) in PBS-containing 0.1% Triton X-100 and 5% horse serum overnight at 4° C., followed by biotinylated secondary antibodies (1:200; Vector®) and FITC-avidin (1:200; Vector®).

[5] = test system: rats with spinal cord injury (SCI); conditions: intraspinal injection; cited from earlier work

| Molecule | morphology of neurites/processes of SSCs [1] | level of α-tubulin in SSCs [2] | expression of NF-L protein in SSCs [2] | process branching/elongation of SSCs (α-internexin staining) [3] | response of SSCs in DMEM-LG medium without serum ([1]; DMEM-LG medium without serum (no ITS supplement)) | NF-H levels in SSCs [2] | processes of synapsin-1 positive cells [4] | hindlimb recovery [5] |
| --- | --- | --- | --- | --- | --- | --- | --- | --- |
| CCCC(=O)Nc1ncnc2c1ncn2[C@@H]1O[C@@H]2COP(=O)(O)O[C@H]2[C@H]1OC(=O)CCC [dbcAMP, dibutyryl cAMP, reference compound] | induced highly branched, elongated, and delicate processes | increased | increased | more extensive branched, elongated processes | – | – | – | – |
| GDNF: glial cell line-derived neurotrophic factor, a potent survival factor for many CNS neuronal cell populations (R&D) (protein, UniProt P39905 78-211, looked up) Glial cell line-derived …: SPDKQMAVLPRRERNRQAAAANPENSRGKGRRGQRGKNRGCVLTAIHLNVTDLGLGYETKEELIFRYCSGSCDAAETTYDKILKNLSRNRRLVSDKVGQACCRPIAFDDDLSFLDDNLVYHILRKHSAKRCGCI | further improved the extension of neurites | induces | stimulatory effect | could induce process branching of SSCs to some extent | respond poorly | less effect | extended processes with branching | improved hindlimb recovery |
